# Measured values from PMC2132493.
# B1: GL[G4] (structured_DNA)
# DNA: TATGGGGGAGCTGGGGAAGGTGGGATTT
# B2: rGL[G4] (structured_RNA)
# RNA: UAUGGGGGAGCUGGGGAAGGUGGGAUUU
# Biological target: mXRN1p (Mus musculus (mouse; testis BALB/c and …, UniProt P97789 1-1719)
# Assay: EMSA
# mXRN1p (Mus musculus, sequence (P97789 whole entry): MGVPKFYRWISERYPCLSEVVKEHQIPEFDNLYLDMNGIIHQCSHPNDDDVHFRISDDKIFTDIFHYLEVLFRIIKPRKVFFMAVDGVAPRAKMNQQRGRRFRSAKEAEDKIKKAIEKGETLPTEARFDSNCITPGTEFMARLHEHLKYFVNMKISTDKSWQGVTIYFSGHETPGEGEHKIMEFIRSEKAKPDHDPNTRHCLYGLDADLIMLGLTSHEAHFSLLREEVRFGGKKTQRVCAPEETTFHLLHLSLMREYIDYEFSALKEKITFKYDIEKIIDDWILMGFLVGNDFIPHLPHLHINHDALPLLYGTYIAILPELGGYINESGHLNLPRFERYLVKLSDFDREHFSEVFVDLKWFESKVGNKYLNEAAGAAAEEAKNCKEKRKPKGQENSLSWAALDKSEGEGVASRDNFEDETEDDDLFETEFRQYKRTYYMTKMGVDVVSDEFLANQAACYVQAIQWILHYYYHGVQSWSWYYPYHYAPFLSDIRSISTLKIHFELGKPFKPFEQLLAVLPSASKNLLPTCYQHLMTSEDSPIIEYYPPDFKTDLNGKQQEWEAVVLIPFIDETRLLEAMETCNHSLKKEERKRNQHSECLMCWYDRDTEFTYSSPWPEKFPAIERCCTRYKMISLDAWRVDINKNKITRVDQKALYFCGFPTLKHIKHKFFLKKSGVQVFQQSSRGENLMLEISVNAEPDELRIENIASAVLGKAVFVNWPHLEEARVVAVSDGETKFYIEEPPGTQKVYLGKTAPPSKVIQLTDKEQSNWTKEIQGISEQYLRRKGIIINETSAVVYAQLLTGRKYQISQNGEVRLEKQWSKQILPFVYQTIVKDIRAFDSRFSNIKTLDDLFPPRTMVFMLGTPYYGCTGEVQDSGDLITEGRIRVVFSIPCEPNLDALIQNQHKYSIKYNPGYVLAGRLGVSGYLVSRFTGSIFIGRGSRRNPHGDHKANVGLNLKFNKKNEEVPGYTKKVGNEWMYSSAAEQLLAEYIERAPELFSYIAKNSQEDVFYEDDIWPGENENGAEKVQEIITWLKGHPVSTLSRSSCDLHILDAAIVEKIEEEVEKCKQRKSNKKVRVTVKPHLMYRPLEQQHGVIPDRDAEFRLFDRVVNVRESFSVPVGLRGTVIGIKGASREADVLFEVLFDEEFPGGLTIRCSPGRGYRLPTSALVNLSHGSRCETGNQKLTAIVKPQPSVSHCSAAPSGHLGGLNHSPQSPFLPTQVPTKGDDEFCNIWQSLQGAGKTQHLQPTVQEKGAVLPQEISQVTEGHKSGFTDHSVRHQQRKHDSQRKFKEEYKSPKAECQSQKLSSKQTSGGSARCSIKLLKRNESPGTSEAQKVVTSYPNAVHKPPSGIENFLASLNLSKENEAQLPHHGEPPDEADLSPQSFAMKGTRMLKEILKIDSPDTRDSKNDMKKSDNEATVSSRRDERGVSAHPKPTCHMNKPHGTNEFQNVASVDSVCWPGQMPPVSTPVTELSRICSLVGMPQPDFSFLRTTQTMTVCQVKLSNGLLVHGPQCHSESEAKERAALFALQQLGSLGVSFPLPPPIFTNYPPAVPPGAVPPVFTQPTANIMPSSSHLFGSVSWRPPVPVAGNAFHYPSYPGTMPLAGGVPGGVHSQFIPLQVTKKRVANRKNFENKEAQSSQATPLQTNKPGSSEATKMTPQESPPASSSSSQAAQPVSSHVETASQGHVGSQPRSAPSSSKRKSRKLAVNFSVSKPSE
binder,measurement,value
B1,Ka,1.26e+10 M⁻¹
B2,Ka,2.95e+10 M⁻¹
